Experimental findings from patent US20170291930 are described below.

The target in data set [1] is T1, Hst-5 synthetic peptide K17R.
T1 chain: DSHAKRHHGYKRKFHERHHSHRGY

Data set [2] deals with T2, Hst-5 synthetic peptide K17L.
T2 chain: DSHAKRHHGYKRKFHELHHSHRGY

B1: purified recombinant Sap2 (C. albicans secreted aspartic protease 2) (protein)
chain: QAVPVTLHNEQVTYAADITVGSNNQKLNVIVDTGSSDLWVPDVNVDCQVTYSDQTADFCKQKGTYDPSGSSASQDLNTPFKIGYGDGSSSQGTLYKDTVGFGGVSIKNQVLADVDSTSIDQGILGVGYKTNEAGGSYDNVPVTLKKQGVIAKNAYSLYLNSPDAATGQIIFGGVDNAKYSGSLIALPVTSDRELRISLGSVEVSGKTINTDNVDVLLDSGTTITYLQQDLADQIIKAFNGKLTQDSNGNSFYEVDCNLSGDVVFNFSKNAKISVPASEFAASLQGDDGQPYDKCQLLFDVNDANILGDNFLRSAYIVYDLDDNEISLAQVKYTSASSISALT
In the case of B1, the “cleavage at the C-terminal side of residue 17 by Sap2 (mass spectrometry)” value in data set [1] is “Substitutions at K17 did lead to a significant decrease in signals from fragments formed by cleavage at the C-terminal side of K17, however, unlike Sap9, Sap2 still cleaved K17L and K17R at this site”; in data set [2], “Substitutions at K17 did lead to a significant decrease in signals from fragments formed by cleavage at the C-terminal side of K17, however, unlike Sap9, Sap2 still cleaved K17L and K17R at this site”.
